Assay results: FireProtDB (doi:10.1021/bi00107a010)

B1: wild type, Q40059 (protein)
chain: MSSMEKKPEGVNIGAGDRQNQKTEWPELVGKSVEEAKKVILQDKPAAQIIVLPVGTIVTMEYRIDRVRLFVDRLDNIAQVPRVG
B2: Subtilisin-chymotrypsin inhibitor-2A wild type, P01053 (protein)
chain: MSSVEKKPEGVNTGAGDRHNLKTEWPELVGKSVEEAKKVILQDKPEAQIIVLPVGTIVTMEYRIDRVRLFVDKLDNIAQVPRVG

Details: Hordeum vulgare; pH 2.2; 25 °C; Thermal; DSC; glycine-HCl 10 mM; reversible: yes; whole UniProt chain shown

Protein | heat capacity change of unfolding | unfolding free energy
B1 | 0.79 kcal/mol/K | 1.94 kcal/mol

Same assay, conditions: Hordeum vulgare; pH 2.5; 25 °C; Thermal; DSC; glycine-HCl 10 mM; reversible: yes; whole UniProt chain shown

Protein | heat capacity change of unfolding | unfolding free energy
B1 | 0.79 kcal/mol/K | 2.79 kcal/mol

Same assay, conditions: Hordeum vulgare; pH 2.8; 25 °C; Thermal; DSC; glycine-HCl 10 mM; reversible: yes; whole UniProt chain shown

Protein | heat capacity change of unfolding | unfolding free energy
B1 | 0.79 kcal/mol/K | 3.73 kcal/mol

Same assay, conditions: Hordeum vulgare; pH 3.2; 25 °C; Thermal; DSC; glycine-HCl 10 mM; reversible: yes; whole UniProt chain shown

Protein | heat capacity change of unfolding | unfolding free energy
B1 | 0.79 kcal/mol/K | 5.2 kcal/mol

Same assay, conditions: Hordeum vulgare; pH 3.5; 25 °C; Thermal; DSC; glycine-HCl 10 mM; reversible: yes; whole UniProt chain shown

Protein | heat capacity change of unfolding | unfolding free energy
B1 | 0.79 kcal/mol/K | 6.48 kcal/mol

Same assay, conditions: Hordeum vulgare; pH 2.2; Thermal; DSC; glycine-HCl 10 mM; reversible: yes; whole UniProt chain shown

Protein | Tm | unfolding enthalpy (calorimetric) | unfolding enthalpy (van 't Hoff)
B2 | 41.6 °C | 43.5 kcal/mol | 42.3 kcal/mol

Same assay, conditions: Hordeum vulgare; pH 2.5; Thermal; DSC; glycine-HCl 10 mM; reversible: yes; whole UniProt chain shown

Protein | Tm | unfolding enthalpy (calorimetric) | unfolding enthalpy (van 't Hoff)
B2 | 47.2 °C | 49.2 kcal/mol | 45.5 kcal/mol

Same assay, conditions: Hordeum vulgare; pH 2.8; Thermal; DSC; glycine-HCl 10 mM; reversible: yes; whole UniProt chain shown

Protein | Tm | unfolding enthalpy (calorimetric) | unfolding enthalpy (van 't Hoff)
B2 | 55.2 °C | 52.8 kcal/mol | 51.1 kcal/mol

Same assay, conditions: Hordeum vulgare; pH 3.2; Thermal; DSC; glycine-HCl 10 mM; reversible: yes; whole UniProt chain shown

Protein | Tm | unfolding enthalpy (calorimetric) | unfolding enthalpy (van 't Hoff)
B2 | 64 °C | 61 kcal/mol | 60.8 kcal/mol

Same assay, conditions: Hordeum vulgare; pH 3.5; Thermal; DSC; glycine-HCl 10 mM; reversible: yes; whole UniProt chain shown

Protein | Tm | unfolding enthalpy (calorimetric) | unfolding enthalpy (van 't Hoff)
B2 | 71 °C | 67.5 kcal/mol | 68.8 kcal/mol
